How the values were obtained:
[1] = target: T1, cynomolgus OX40, membrane-bound (cynomolgus monkey, UniProt P43489 29-277 (human entry)); test: FACS on activated primary cynomolgus CD4+/CD25+ T cells, purified recombinant antibody, APC GMFI
T1 construct: also called cynoOX40-CHO
T1 chain: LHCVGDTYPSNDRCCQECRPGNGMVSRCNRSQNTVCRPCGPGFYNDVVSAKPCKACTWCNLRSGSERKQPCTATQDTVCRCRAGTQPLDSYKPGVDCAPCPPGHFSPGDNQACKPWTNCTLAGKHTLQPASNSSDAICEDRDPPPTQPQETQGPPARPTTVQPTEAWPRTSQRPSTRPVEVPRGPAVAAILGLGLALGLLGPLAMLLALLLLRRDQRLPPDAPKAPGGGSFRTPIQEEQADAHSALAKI
Experimental: Briefly, cells were activated for several days before the binding assay in order to induce OX40 expression. Total leukocytes were isolated from cynomolgus macaque peripheral blood by lysis of red blood cells using an ammonium chloride buffer. The leukocytes were then cultured for four to five days with in flasks pre-coated with anti-human CD3 plus anti-human CD28 antibodies that cross-react with cynomolgus macaque, in the presence of recombinant human IL-2, in order to expand and activate T cells. On the day of the assay, the cells were harvested and stained with a titration of each anti-OX40 antibody. Bound antibodies were detected with a fluorescently conjugated anti-human IgG polyclonal secondary antibody, and the cells were co-stained for CD4 and CD25 to detect activated CD4 T cells. The fluorescence intensity of the staining was measured using a FACSCanto II flow cytometer (Becton Dickinson). The geometric mean fluorescence intensity (GMFI) or median fluorescence intensity (MedFI) of anti-OX40 antibody staining was calculated for the CD4+CD25+ population (FACSDiva software). Dose-response curves were generated and EC50s for antibody binding were calculated using GraphPad Prism software.
The same experiment was performed with anti-OX40 antibodies with variable region substitutions.

[2] = target: T2, human OX40, membrane-bound (human, UniProt P43489 29-277); test: FACS on activated primary human CD4+/CD25+ T cells, purified recombinant antibody, APC GMFI
T2 sequence: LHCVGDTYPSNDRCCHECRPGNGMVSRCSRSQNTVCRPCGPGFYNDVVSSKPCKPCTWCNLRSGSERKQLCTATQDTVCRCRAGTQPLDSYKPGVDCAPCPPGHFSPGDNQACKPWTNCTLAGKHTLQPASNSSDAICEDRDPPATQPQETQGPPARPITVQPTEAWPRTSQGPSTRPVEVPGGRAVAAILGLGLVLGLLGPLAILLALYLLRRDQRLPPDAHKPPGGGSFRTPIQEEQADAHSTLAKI
Experimental: Cells were activated for several days before the binding assay in order to induce OX40 expression. Briefly, PBMCs were cultured for three or four days with magnetic beads coated with anti-human CD3 plus anti-human CD28, in the presence of recombinant human IL-2. On the day of the assay, the beads were removed and the cells stained with a titration of each anti-OX40 antibody. Bound antibodies were detected with a fluorescently conjugated anti-human IgG polyclonal secondary antibody, and the cells were co-stained for CD4 and CD25 to detect activated CD4 T cells. The fluorescence intensity of the staining was measured using a FACSCanto II flow cytometer (Becton Dickinson). The geometric mean fluorescence intensity (GMFI) or median fluorescence intensity (MedFI) of anti-OX40 antibody staining was calculated for the CD4+CD25+ population (FACSDiva software). EC₅₀s for antibody binding were calculated using GraphPad Prism software.

B1: OX40.6 (antibody, human IgG1, kappa, V domains shown)
VH: EVQLVQSGGGLVQPGGSLRLSCAGSGFTFSNYAMYWVRQAPGKGLEWVSAIGIGGDTFYTDSVKGRFTISRDNAKNSLSLQMNSLRAEDTAVYYCARMGTGYFFDYWGQGTLVTVSS
VL: EIVLTQSPATLSLSPGERATLSCRASQSVSSYLAWYQQKPGQAPRLLIYDASNRATGIPARFSGSGSGTDFTLTISSLEPEDFAVYYCQQRSNWPLTFGPGTKVDIKR
notes: g1f; 23H3 with VH-H13Q/M87T
- EC50 (read off the curve) [1]: ~0.1 nM
- EC50 (read off the curve) [2]: ~0.1 nM

Reference: patent publication US20180237534A1 (Bristol-Myers Squibb, published 2018)
